# Measured values: patent EP1870467A1 (UNIVERSITY COLLEGE LONDON, dated 2007)
# Biological target: the molecule itself
# Assay: western blot, band at about 120kD read as a homodimer
protein,measurement,value
"full length MEPE (phosphatonin) expressed in an insect cell line and excreted into the medium (ligand, Secreted into insect cell medium; also called full length phosphatonin; Bac-1) PTFQPQTEKTKQSCVEEQRQEEKNKDNIGFHHLGKRINQELSSKENIVQERKKDLSLSEASENKGSSKSQNYFTNRQRLNKEYSISNKENTHNGLRMSIYPKSTGNKGFEDGDDAISKLHDQEEYGAALIRNNMQHIMGPVTAIKLLGEENKENTPRNVLNIIPASMNYAKAHSKDKKKPQRDSQAQKSPVKSKSTHRIQHNIDYLKHLSKVKKIPSDFEGSGYTDLQERGDNDISPFSGDGQPFKDIPGKGEATGPDLEGKDIQTGFAGPSEAESTHLDTKKPGYNEIPEREENGGNTIGTRDETAKEADAVDVSLVEGSNDIMGSTNFKELPGREGNRVDAGSQNAHQGKVEFHYPPAPSKEKRKEGSSDAAESTNYNEIPKNGKGSTRKGVDHSNRNQATLNEKQRFPSKGKSQGLPIPSRGLDNEIKNEMDSFNGPSHENIITHGRKYHYVPHRQNNSTRNKGMPQGKGSWGRQPHSNRRFSSRRRDDSSESSDSGSSSESDGD",binding result,binds
